Consider 1 substance from publication PMC11090809.

This assay addresses empty AAVHSC-15 capsid (OXBS1-E fraction of AAV-OXBS1) (AAVHSC-15 (Clade F adeno-associated virus)). Description: charge detection mass spectrometry (CDMS); OXBS1-E fraction sprayed into a CDMS instrument (Megadalton Solutions); single ions trapped, charge detected, masses calculated; n = 1.

As for “empty AAVHSC-15 capsid (OXBS1-E fraction of AAV-OXBS1) (complex)”, the % relative abundance of the dimer peak is 20% and the stoichiometry N was 2.

The stoichiometry N is a count of units in the complex or per binding partner.
